This note sets out measurements from US20240209076A1 (KODIAK SCIENCES, published 2024).

In assay [1] the target is T1, human IL-6 (human, UniProt P05231 30-212).
T1 construct: IL-6 flowed over captured antibodies
In words: SPR Biacore, purified Ab on Protein A chip, 37 C. How it is done:
(§1) Antibodies were captured on a Protein A chip (GE) by injecting 1:20 cell supernatant dilutions at 10 μL/min for 60 seconds. […] The sensor chip was regenerated by a 60 seconds injection of 10 mM Glycine pH 1.7 at the flow rate of 50 μL/min. […] For this setup, 1 μg/mL of purified antibody was injected over a Protein A chip at 10 μL/min for 25 seconds. […] The sensor chip was regenerated by a 60 seconds injection of 10 mM Glycine pH 1.7 at flow rate of 50 μL/min. Data analysis for supernatant and purified samples were performed using BIAevaluation software (GE). All sensorgrams were double reference subtracted and fit using a 1:1 Langmuir binding model.
T1 sequence (P05231 30-212 limits assumed): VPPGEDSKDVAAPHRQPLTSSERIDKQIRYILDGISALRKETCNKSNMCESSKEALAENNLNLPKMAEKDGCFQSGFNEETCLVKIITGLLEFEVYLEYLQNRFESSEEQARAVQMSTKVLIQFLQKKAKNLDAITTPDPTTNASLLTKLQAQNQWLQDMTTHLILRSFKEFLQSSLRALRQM

Assay [2] addresses T1, human IL-6. In words: SPR Biacore, supernatant Ab on Protein A chip, 37 C. On the technique in general: Surface plasmon resonance follows binding to a sensor surface in real time, without labels.
Assay [3] deals with T2, human IL-6 (human, UniProt P05231 30-212). In words: SPR Biacore, purified, Protein A capture, 37 C. The procedure:
as §1
T2 sequence (P05231 30-212 limits assumed): as above

Assay [4] deals with T2, human IL-6. In words: SPR Biacore, supernatant, Protein A capture, 37 C. An outline of the steps: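 Antibodies from 1:20-diluted culture supernatant in HBS-EP+ were captured on a Protein A chip at 37 C, with 10 mM glycine pH 1.7 regeneration. Sensorgrams were double-reference subtracted and fitted to a 1:1 Langmuir model.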

B1: anti-IL-6 antibody, heavy chain WT / light chain M32L, M50D, N52S, M88Q (antibody, IgG1, V domains shown)
VH: EVQLVESGGGLVQPGGSLRLSCAASGFTFSPFAMSWVRQAPGKGLEWVAKISPGGSWTYYSDTVTGRFTFSLDTSKSTAYLQMNSLRAEDTAVYYCARQLWGYYALDIWGQGTLVTVSS
VL: DIQLTQSPSSLSASVGDRVTITCSASISVSYLYWYQQKPGKAPKLLIYDDSSLASGVPSRFSGSGSGTDFTLTISSLQPEDFATYYCQQWSGYPYTFGQGTKVEIK
notes: Full IgG1 (Expi293); VL = variant III
In the assay with human IL-6 [1], B1 displayed a Kd of 0.286 nM, a koff of 0.000319 s⁻¹ and a kon of 1.12e+06 M⁻¹ s⁻¹. In addition, in the assay with human IL-6 [2], the affinity, expressed as Kd, was 0.611 nM; the koff turned out to be 0.000414 s⁻¹; the kon was 677000 M⁻¹ s⁻¹.

B2: anti-IL-6 antibody, heavy chain T65Q, G66D / light chain M32L, M50D, N52S, M88Q (antibody, IgG1, V domains shown)
VH: EVQLVESGGGLVQPGGSLRLSCAASGFTFSPFAMSWVRQAPGKGLEWVAKISPGGSWTYYSDTVQDRFTFSLDTSKSTAYLQMNSLRAEDTAVYYCARQLWGYYALDIWGQGTLVTVSS
VL: DIQLTQSPSSLSASVGDRVTITCSASISVSYLYWYQQKPGKAPKLLIYDDSSLASGVPSRFSGSGSGTDFTLTISSLQPEDFATYYCQQWSGYPYTFGQGTKVEIK
notes: as for B1
In the assay with human IL-6 [1], B2 returned a Kd of 0.209 nM, a koff of 0.00038 s⁻¹ and a kon of 1.82e+06 M⁻¹ s⁻¹. Besides, in the assay with human IL-6 [2], the Kd was 0.258 nM, the koff amounted to 0.000562 s⁻¹ and the kon amounted to 2.18e+06 M⁻¹ s⁻¹.

B3: anti-IL-6 antibody, heavy chain S35H, G66D / light chain M32L, M50D, N52S, M88Q (antibody, IgG1, V domains shown)
VH: EVQLVESGGGLVQPGGSLRLSCAASGFTFSPFAMHWVRQAPGKGLEWVAKISPGGSWTYYSDTVTDRFTFSLDTSKSTAYLQMNSLRAEDTAVYYCARQLWGYYALDIWGQGTLVTVSS
VL: DIQLTQSPSSLSASVGDRVTITCSASISVSYLYWYQQKPGKAPKLLIYDDSSLASGVPSRFSGSGSGTDFTLTISSLQPEDFATYYCQQWSGYPYTFGQGTKVEIK
notes: as for B1
In the assay with human IL-6 [1], B3 showed a Kd of 0.212 nM, a koff of 0.000254 s⁻¹ and a kon of 1.2e+06 M⁻¹ s⁻¹. In the assay with human IL-6 [2], the Kd was determined as 0.166 nM, the koff worked out at 0.000539 s⁻¹ and the kon came to 3.24e+06 M⁻¹ s⁻¹.

B4: Anti-IL-6 antibody, heavy chain S35H, G66D, L100V / light chain M32L, M50D, N52S, M88Q (antibody, IgG1, V domains shown)
VH: EVQLVESGGGLVQPGGSLRLSCAASGFTFSPFAMHWVRQAPGKGLEWVAKISPGGSWTYYSDTVTDRFTFSLDTSKSTAYLQMNSLRAEDTAVYYCARQVWGYYALDIWGQGTLVTVSS
VL: DIQLTQSPSSLSASVGDRVTITCSASISVSYLYWYQQKPGKAPKLLIYDDSSLASGVPSRFSGSGSGTDFTLTISSLQPEDFATYYCQQWSGYPYTFGQGTKVEIK
notes: IgG1; variable domains only; VL is variant III
For B4, in the assay with human IL-6 [3], the Kd came to 0.238 nM, the koff was 0.000385 s⁻¹ and the kon was found to be 1.62e+06 M⁻¹ s⁻¹. Also, in the assay with human IL-6 [4], the affinity, expressed as Kd, was 0.184 nM; the koff came out at 0.000922 s⁻¹; the kon was 5.01e+06 M⁻¹ s⁻¹.

B5: anti-IL-6 antibody, heavy chain T63K, G66D / light chain M32L, M50D, N52S, M88Q (antibody, IgG1, V domains shown)
VH: EVQLVESGGGLVQPGGSLRLSCAASGFTFSPFAMSWVRQAPGKGLEWVAKISPGGSWTYYSDKVTDRFTFSLDTSKSTAYLQMNSLRAEDTAVYYCARQLWGYYALDIWGQGTLVTVSS
VL: DIQLTQSPSSLSASVGDRVTITCSASISVSYLYWYQQKPGKAPKLLIYDDSSLASGVPSRFSGSGSGTDFTLTISSLQPEDFATYYCQQWSGYPYTFGQGTKVEIK
notes: as for B1
For B5, in the assay with human IL-6 [1], the Kd came out at 0.252 nM, the koff is 0.000401 s⁻¹ and the on-rate constant (kon) was determined as 1.59e+06 M⁻¹ s⁻¹. In the assay with human IL-6 [2], this molecule returned a Kd of 0.246 nM, a koff of 0.000529 s⁻¹ and a kon of 2.15e+06 M⁻¹ s⁻¹.

B6: Anti-IL-6 antibody, heavy chain S35H, G66D, L100T / light chain M32L, M50D, N52S, M88Q (antibody, IgG1, V domains shown)
VH: EVQLVESGGGLVQPGGSLRLSCAASGFTFSPFAMHWVRQAPGKGLEWVAKISPGGSWTYYSDTVTDRFTFSLDTSKSTAYLQMNSLRAEDTAVYYCARQTWGYYALDIWGQGTLVTVSS
VL: DIQLTQSPSSLSASVGDRVTITCSASISVSYLYWYQQKPGKAPKLLIYDDSSLASGVPSRFSGSGSGTDFTLTISSLQPEDFATYYCQQWSGYPYTFGQGTKVEIK
notes: as for B4
Consider B6, for which, in the assay with human IL-6 [3], the Kd is 0.263 nM, the koff came out at 0.000481 s⁻¹ and the on-rate (kon) was 1.83e+06 M⁻¹ s⁻¹. In the assay with human IL-6 [4], this molecule came in with a Kd of 0.204 nM, a koff of 0.00278 s⁻¹ and a kon of 1.36e+07 M⁻¹ s⁻¹.

B7: anti-IL-6 antibody, heavy chain T63E, G66D / light chain M32L, M50D, N52S, M88Q (antibody, IgG1, V domains shown)
VH: EVQLVESGGGLVQPGGSLRLSCAASGFTFSPFAMSWVRQAPGKGLEWVAKISPGGSWTYYSDEVTDRFTFSLDTSKSTAYLQMNSLRAEDTAVYYCARQLWGYYALDIWGQGTLVTVSS
VL: DIQLTQSPSSLSASVGDRVTITCSASISVSYLYWYQQKPGKAPKLLIYDDSSLASGVPSRFSGSGSGTDFTLTISSLQPEDFATYYCQQWSGYPYTFGQGTKVEIK
notes: as for B1
For the molecule B7, in the assay with human IL-6 [1], the Kd came to 0.198 nM, the koff stood at 0.000327 s⁻¹ and the kon is 1.65e+06 M⁻¹ s⁻¹. In the assay with human IL-6 [2], the Kd was found to be 0.242 nM, the dissociation rate constant (koff) was 0.000485 s⁻¹ and the kon turned out to be 2e+06 M⁻¹ s⁻¹.

B8: anti-IL-6 antibody, heavy chain T63Q, G66D / light chain M32L, M50D, N52S, M88Q (antibody, IgG1, V domains shown)
VH: EVQLVESGGGLVQPGGSLRLSCAASGFTFSPFAMSWVRQAPGKGLEWVAKISPGGSWTYYSDQVTDRFTFSLDTSKSTAYLQMNSLRAEDTAVYYCARQLWGYYALDIWGQGTLVTVSS
VL: DIQLTQSPSSLSASVGDRVTITCSASISVSYLYWYQQKPGKAPKLLIYDDSSLASGVPSRFSGSGSGTDFTLTISSLQPEDFATYYCQQWSGYPYTFGQGTKVEIK
notes: as for B1
With B8, in the assay with human IL-6 [1], the Kd turned out to be 0.201 nM, the koff was found to be 0.000341 s⁻¹ and the kon was found to be 1.69e+06 M⁻¹ s⁻¹. In the assay with human IL-6 [2], this molecule had a Kd of 0.259 nM, a koff of 0.000461 s⁻¹ and a kon of 1.78e+06 M⁻¹ s⁻¹.

B9: Anti-IL-6 antibody, heavy chain WT / light chain WT (antibody, IgG1, V domains shown)
VH: EVQLVESGGGLVQPGGSLRLSCAASGFTFSPFAMSWVRQAPGKGLEWVAKISPGGSWTYYSDTVTGRFTFSLDTSKSTAYLQMNSLRAEDTAVYYCARQLWGYYALDIWGQGTLVTVSS
VL: DIQLTQSPSSLSASVGDRVTITCSASISVSYMYWYQQKPGKAPKLLIYDMSNLASGVPSRFSGSGSGTDFTLTISSLQPEDFATYYCMQWSGYPYTFGQGTKVEIK
notes: IgG1; variable domains only; also called parent; wild-type
Take B9: in the assay with human IL-6 [3], the Kd worked out at 0.214 nM, the koff was 0.000132 s⁻¹ and the kon was determined as 615000 M⁻¹ s⁻¹. Also, in the assay with human IL-6 [4], the Kd is 0.649 nM, the koff was found to be 0.000559 s⁻¹ and the kon came out at 861000 M⁻¹ s⁻¹.

B10: anti-IL-6 antibody, heavy chain G66D / light chain M32L, M50D, N52S, M88Q (antibody, IgG1, V domains shown)
VH: EVQLVESGGGLVQPGGSLRLSCAASGFTFSPFAMSWVRQAPGKGLEWVAKISPGGSWTYYSDTVTDRFTFSLDTSKSTAYLQMNSLRAEDTAVYYCARQLWGYYALDIWGQGTLVTVSS
VL: DIQLTQSPSSLSASVGDRVTITCSASISVSYLYWYQQKPGKAPKLLIYDDSSLASGVPSRFSGSGSGTDFTLTISSLQPEDFATYYCQQWSGYPYTFGQGTKVEIK
notes: as for B1
In the case of B10, in the assay with human IL-6 [1], the affinity, expressed as Kd, was 0.244 nM; the koff stood at 0.000412 s⁻¹; the kon is 1.69e+06 M⁻¹ s⁻¹. In the assay with human IL-6 [2], this molecule came in with a Kd of 0.296 nM, a koff of 0.000483 s⁻¹ and a kon of 1.63e+06 M⁻¹ s⁻¹.

Usually Kd stands for the constant that tells how readily two partners part at equilibrium. As a reminder, the koff is a measure of how fast the partners let go of each other. In general, kon refers to a measure of how fast the partners come together. Lower therefore signals slow association.
